Results: patent US12281162 (LANOVA MEDICINES DEVELOPMENT, dated 2025)
Changes are numbered by the printed parent chain.

B1: 6G10D9-XI (antibody, V domains shown)
VH: QVQLQQSGAELARPGASVKMSCKASGYTFTTYTMHWVKQRPGQGLEWLGYINPSSGYTNYNQKFKDKATLTAGKSSSTAYMQLSSLTSEDSAVYYCASLRSRGYFDYWGQGTTLTVSS
VL: DIVMTQSQTFMSTSVGDRVRITCKASQNVGTAVVWYQQKTGQSPRLLIYSASNRYTGVPDRFTGSGSGTDFTLTISNMQSEDLADFFCQQYSSYPYTFGGGTKLEIK
notes: also called 6G10D9 (chimeric); 6G1009-X1
B2: 6-H3L3 (antibody, V domains shown)
VH: QVQLVQSGAEVAKPGASVKVSCKASGYTFTTYTMHWVKQAPGQGLEWLGYINPSSGYTNYNQKFKDRVTMTADTSTSTVYMELSSLRSEDTAVYYCASLRSRGYFDYWGQGTLVTVSS
VL: DIQMTQSPSFLSTSVGDRVTITCKASQNVGTAVVWYQQKPGKSPKLLIYSASNRYTGVPSRFSGSGSGTEFTLTISSMQPEDFATFFCQQYSSYPYTFGQGTKLEIK
notes: humanized 6G10D9, VH v3 x VL v3
B3: 6-H4L1 (antibody, V domains shown)
VH: B2 VH with V20M, M70L, V114L
VL: B2 VL with M4L, T13A, S43A, M78L, F86Y, F87Y
notes: humanized 6G10D9, VH v4 x VL v1
B4: 6-H4L2 (antibody, V domains shown)
VH: B2 VH with V20M, M70L, V114L
VL: B2 VL with M4L, M78L, F87Y
notes: humanized 6G10D9, VH v4 x VL v2
B5: 6-H4L3 (antibody, V domains shown)
VH: B2 VH with V20M, M70L, V114L
VL: B2 VL
notes: humanized 6G10D9, VH v4 x VL v3

What follows are binders tested against T1, human G-protein-coupled receptor family C group 5 member D (GPRC5D) (human, UniProt Q9NZD1 1-345) (assay: FACS, CHO-K1/GPRC5D).
T1 construct: whole, on cells; also called human GPRC5D protein
T1 sequence (Q9NZD1 whole entry): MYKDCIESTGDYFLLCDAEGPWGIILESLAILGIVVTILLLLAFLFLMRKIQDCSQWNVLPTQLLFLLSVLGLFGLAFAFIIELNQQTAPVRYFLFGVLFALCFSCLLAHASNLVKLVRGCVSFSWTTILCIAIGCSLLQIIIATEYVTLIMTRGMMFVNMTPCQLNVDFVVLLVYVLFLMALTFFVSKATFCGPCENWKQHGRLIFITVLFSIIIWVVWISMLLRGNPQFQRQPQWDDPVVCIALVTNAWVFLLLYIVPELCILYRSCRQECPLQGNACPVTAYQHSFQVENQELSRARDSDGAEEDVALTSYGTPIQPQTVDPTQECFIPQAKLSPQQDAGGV

First: B1
Second: B2
The Bottom of the first is higher: 6860 for the first, 3990 for the second.

Compared with B3, B4 is lower in Bottom: 61.5 for the first, 9.56 for the second.

B5 showed a Bottom of 2340.

Compared with B1, B2 is higher in LogEC50: 0.299 for the first, 0.955 for the second.

Compared with B3, B4 is higher in LogEC50: 1.65 for the first, 1.98 for the second.

In the case of B5, the LogEC50 is reported as 0.905.

B1 and B2 are the same in Span: 115000 for the first, 115000 for the second.

Compared with B3, B4 is lower in Span: 50200 for the first, 39400 for the second.

B5 was tested, and the Span was 124000.

First: B1
Second: B2
The Top of the first is higher: 122000 for the first, 119000 for the second.

Compared with B3, B4 is lower in Top: 50300 for the first, 39400 for the second.

Binder B5 has a Top of 126000.

These binders were tested against T1, human G-protein-coupled receptor family … (assay: FACS, CHO-K1/human GPRC5D).

Going from B1 to B2, the Bottom falls from 524 to 172.

B5 gave a Bottom of 109.

Going from B1 to B2, the LogEC50 rises from 0.472 to 1.41.

B5 was tested, and the LogEC50 was 1.42.

Going from B1 to B2, the Span rises from 104000 to 134000.

With B5 the Span was 146000.

First: B1
Second: B2
The Top of the first is lower: 104000 for the first, 134000 for the second.

B5 gave a Top of 146000.

What follows are binders tested against T1, human G-protein-coupled receptor family … (assay: FACS, NCI-H929 cells).

Going from B1 to B2, the Bottom falls from 269 to 130.

For B5, the Bottom was 80.

Compared with B1, B2 is higher in LogEC50: 0.0515 for the first, 1.47 for the second.

B5 gave a LogEC50 of 1.61.

Compared with B1, B2 is higher in Span: 13500 for the first, 21700 for the second.

B5 showed a Span of 28900.

First: B1
Second: B2
The Top of the first is lower: 13800 for the first, 21900 for the second.

B5 showed a Top of 29000.

These binders were tested against T1, human G-protein-coupled receptor family … (assay: FACS, CHO-K1/human GPRC5D, chimeric antibody).
Description: CHO—K1 cells stably expressed human GPRC5D, were harvested from flasks. 100 µl of 1×10⁶ cells/ml of cells were incubated with primary chimeric antibodies in 3-fold serial dilutions starting from 300 nM to 0.001 nM for 30 minutes on ice. After being washed with 200 µl of FACS buffer twice, cells were incubated with secondary antibody for 30 minutes on ice. Cells were washed with 200 µl of FACS buffer twice and transferred to BD Falcon 5 ml tube and analyzed by FACS.

With B1 the Bottom was 6890.

B1 showed a LogEC50 of 0.101.

Binder B1 has a Span of 451000.

For B1, the Top was 458000.
